Our source for the activity (% GUS+ progeny (19/75)) values is patent US8017829.

The subject of the series is Cre recombinase (bacteriophage P1?). In words: cell_activity. Conditions: rice plant crosses; excision confirmed by Southern blot.

On to lox site, for which the activity (% GUS+ progeny (19/75)) was 25.3.
